B1: PDS5B (parent)
chain: IYKKYALQSAAGKDAAKQIAWIKD

Variants of: B1
Assay: protein stability index of a GFP-peptide fusion (GPS, HEK-293T) (PSI 1-6); higher = more stable
Details: c terminus: a fixed tail appended
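Further: lentivirally expressed fusions sorted by FACS into six bins by GFP to DsRed ratio, PSI derived from sequencing read proportions per bin multiplied by bin number.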

Row | Variant | protein stability index
1 | IYKKYALQSQAGKDAAKQIAWIKD | 2.4
2 | IYKKYALQSHAGKDAAKQIAWIKD | 1.84
3 | IYKKYALQSSAGKDAAKQIAWIKD | 2.36
4 | IYKKYALQSIAGKDAAKQIAWIKD | 1.89
5 | IYKKYALQSCAGKDAAKQIAWIKD | 1.72
6 | IYKKYALQSPAGKDAAKQIAWIKD | 2.26
7 | IYKKYALQSVAGKDAAKQIAWIKD | 2.1
8 | IYKKYALQSNAGKDAAKQIAWIKD | 2.19
9 | IYKKYALQSKAGKDAAKQIAWIKD | 2
10 | IYKKYALQSGAGKDAAKQIAWIKD | 1.71
11 | IYKKYALQSWAGKDAAKQIAWIKD | 1.77
12 | IYKKYALQSDAGKDAAKQIAWIKD | 2.53
13 | IYKKYALQSRAGKDAAKQIAWIKD | 1.37
14 | IYKKYALQSLAGKDAAKQIAWIKD | 2.32
15 | IYKKYALQSMAGKDAAKQIAWIKD | 1.83
16 | IYKKYALQSYAGKDAAKQIAWIKD | 1.75
17 | IYKKYALQSTAGKDAAKQIAWIKD | 2.42
18 | IYKKYALQSFAGKDAAKQIAWIKD | 1.37
19 | IYKKYALQSEAGKDAAKQIAWIKD | 2.38
20 | IYKKYALQSAAGKDAHKQIAWIKD | 2.29
21 | IYKKYALQSAAGKDADKQIAWIKD | 2.75
22 | IYKKYALQSAAGKDAVKQIAWIKD | 2.98
23 | IYKKYALQSAAGKDAFKQIAWIKD | 1.76
24 | IYKKYALQSAAGKDAWKQIAWIKD | 2.11

Row | Variant | protein stability index
25 | IYKKYALQSAAGKDARKQIAWIKD | 2.12
26 | IYKKYALQSAAGKDAKKQIAWIKD | 2.33
27 | IYKKYALQSAAGKDATKQIAWIKD | 2.46
28 | IYKKYALQSAAGKDAQKQIAWIKD | 2.35
29 | IYKKYALQSAAGKDAPKQIAWIKD | 2.05
30 | IYKKYALQSAAGKDACKQIAWIKD | 2.16
31 | IYKKYALQSAAGKDASKQIAWIKD | 2.47
32 | IYKKYALQSAAGKDAGKQIAWIKD | 2.92
33 | IYKKYALQSAAGKDAIKQIAWIKD | 2.47
34 | IYKKYALQSAAGKDALKQIAWIKD | 2.09
35 | IYKKYALQSAAGKDAEKQIAWIKD | 2.82
36 | IYKKYALQSAAGKDANKQIAWIKD | 2.39
37 | IYKKYALQSAAGKDAMKQIAWIKD | 2.02
38 | IYKKYALQSAAGKDAYKQIAWIKD | 2.05
39 | IYKKYALQSANGKDAAKQIAWIKD | 2.61
40 | IYKKYALQSADGKDAAKQIAWIKD | 3.03
41 | IYKKYALQSAIGKDAAKQIAWIKD | 1.73
42 | IYKKYALQSAKGKDAAKQIAWIKD | 2.5
43 | IYKKYALQSAEGKDAAKQIAWIKD | 2.43
44 | IYKKYALQSAFGKDAAKQIAWIKD | 1.75
45 | IYKKYALQSAGGKDAAKQIAWIKD | 2.65
46 | IYKKYALQSAWGKDAAKQIAWIKD | 1.82
47 | IYKKYALQSASGKDAAKQIAWIKD | 2.3
48 | IYKKYALQSATGKDAAKQIAWIKD | 2.15

Row | Variant | protein stability index
49 | IYKKYALQSALGKDAAKQIAWIKD | 1.8
50 | IYKKYALQSAQGKDAAKQIAWIKD | 2.69
51 | IYKKYALQSAPGKDAAKQIAWIKD | 2.27
52 | IYKKYALQSACGKDAAKQIAWIKD | 1.58
53 | IYKKYALQSAMGKDAAKQIAWIKD | 1.78
54 | IYKKYALQSARGKDAAKQIAWIKD | 1.75
55 | IYKKYALQSAYGKDAAKQIAWIKD | 1.8
56 | IYKKYALQSAHGKDAAKQIAWIKD | 1.75
57 | IYKKYALQSAVGKDAAKQIAWIKD | 2.29
58 | IYKKYALQSAAGKKAAKQIAWIKD | 2.28
59 | IYKKYALQSAAGKGAAKQIAWIKD | 2.24
60 | IYKKYALQSAAGKIAAKQIAWIKD | 1.82
61 | IYKKYALQSAAGKWAAKQIAWIKD | 2.1
62 | IYKKYALQSAAGKHAAKQIAWIKD | 1.86
63 | IYKKYALQSAAGKMAAKQIAWIKD | 2.1
64 | IYKKYALQSAAGKAAAKQIAWIKD | 1.9
65 | IYKKYALQSAAGKFAAKQIAWIKD | 2.07
66 | IYKKYALQSAAGKVAAKQIAWIKD | 2.1
67 | IYKKYALQSAAGKYAAKQIAWIKD | 1.85
68 | IYKKYALQSAAGKEAAKQIAWIKD | 2.1
69 | IYKKYALQSAAGKSAAKQIAWIKD | 2.15
70 | IYKKYALQSAAGKTAAKQIAWIKD | 1.94
71 | IYKKYALQSAAGKQAAKQIAWIKD | 2.15
72 | IYKKYALQSAAGKRAAKQIAWIKD | 2.72

Row | Variant | protein stability index
73 | IYKKYALQSAAGKLAAKQIAWIKD | 1.68
74 | IYKKYALQSAAGKPAAKQIAWIKD | 2.34
75 | IYKKYALQSAAGKCAAKQIAWIKD | 1.36
76 | IYKKYALQSAAGKNAAKQIAWIKD | 2.19
77 | IYKKYALQSAANKDAAKQIAWIKD | 2.19
78 | IYKKYALQSAADKDAAKQIAWIKD | 3.13
79 | IYKKYALQSAACKDAAKQIAWIKD | 1.6
80 | IYKKYALQSAAVKDAAKQIAWIKD | 2.08
81 | IYKKYALQSAAIKDAAKQIAWIKD | 1.69
82 | IYKKYALQSAATKDAAKQIAWIKD | 1.71
83 | IYKKYALQSAAQKDAAKQIAWIKD | 1.58
84 | IYKKYALQSAAKKDAAKQIAWIKD | 1.75
85 | IYKKYALQSAALKDAAKQIAWIKD | 1.84
86 | IYKKYALQSAAPKDAAKQIAWIKD | 2.74
87 | IYKKYALQSAAHKDAAKQIAWIKD | 1.67
88 | IYKKYALQSAARKDAAKQIAWIKD | 1.88
89 | IYKKYALQSAASKDAAKQIAWIKD | 1.96
90 | IYKKYALQSAAYKDAAKQIAWIKD | 1.64
91 | IYKKYALQSAAWKDAAKQIAWIKD | 2.63
92 | IYKKYALQSAAFKDAAKQIAWIKD | 1.99
93 | IYKKYALQSAAAKDAAKQIAWIKD | 1.86
94 | IYKKYALQSAAEKDAAKQIAWIKD | 2.34
95 | IYKKYALQSAAGHDAAKQIAWIKD | 2.29
96 | IYKKYALQSAAGGDAAKQIAWIKD | 2.22

Row | Variant | protein stability index
97 | IYKKYALQSAAGEDAAKQIAWIKD | 2.55
98 | IYKKYALQSAAGRDAAKQIAWIKD | 2.77
99 | IYKKYALQSAAGLDAAKQIAWIKD | 2.14
100 | IYKKYALQSAAGTDAAKQIAWIKD | 2.3
101 | IYKKYALQSAAGMDAAKQIAWIKD | 2.17
102 | IYKKYALQSAAGYDAAKQIAWIKD | 2.92
103 | IYKKYALQSAAGNDAAKQIAWIKD | 2.27
104 | IYKKYALQSAAGDDAAKQIAWIKD | 2.6
105 | IYKKYALQSAAGIDAAKQIAWIKD | 2.16
106 | IYKKYALQSAAGCDAAKQIAWIKD | 1.94
107 | IYKKYALQSAAGQDAAKQIAWIKD | 2.1
108 | IYKKYALQSAAGWDAAKQIAWIKD | 1.84
109 | IYKKYALQSAAGSDAAKQIAWIKD | 2.28
110 | IYKKYALQSAAGADAAKQIAWIKD | 2.93
111 | IYKKYALQSAAGVDAAKQIAWIKD | 2
112 | IYKKYALQSAAGPDAAKQIAWIKD | 2.4
113 | IYKKYALQSAAGFDAAKQIAWIKD | 1.93
114 | IYKKYALQAAAGKDAAKQIAWIKD | 2.16
115 | IYKKYALQTAAGKDAAKQIAWIKD | 2.06
116 | IYKKYALQMAAGKDAAKQIAWIKD | 2.44
117 | IYKKYALQEAAGKDAAKQIAWIKD | 2.73
118 | IYKKYALQLAAGKDAAKQIAWIKD | 1.76
119 | IYKKYALQPAAGKDAAKQIAWIKD | 2.17
120 | IYKKYALQWAAGKDAAKQIAWIKD | 1.99

Row | Variant | protein stability index
121 | IYKKYALQIAAGKDAAKQIAWIKD | 1.93
122 | IYKKYALQYAAGKDAAKQIAWIKD | 1.75
123 | IYKKYALQRAAGKDAAKQIAWIKD | 2.29
124 | IYKKYALQVAAGKDAAKQIAWIKD | 2.13
125 | IYKKYALQQAAGKDAAKQIAWIKD | 2.79
126 | IYKKYALQCAAGKDAAKQIAWIKD | 2
127 | IYKKYALQNAAGKDAAKQIAWIKD | 2.2
128 | IYKKYALQHAAGKDAAKQIAWIKD | 2.38
129 | IYKKYALQKAAGKDAAKQIAWIKD | 1.87
130 | IYKKYALQGAAGKDAAKQIAWIKD | 2.17
131 | IYKKYALQDAAGKDAAKQIAWIKD | 3.27
132 | IYKKYALQFAAGKDAAKQIAWIKD | 2
133 | IYKKYALQSAAGKDRAKQIAWIKD | 2.09
134 | IYKKYALQSAAGKDMAKQIAWIKD | 1.83
135 | IYKKYALQSAAGKDSAKQIAWIKD | 2.73
136 | IYKKYALQSAAGKDKAKQIAWIKD | 2.76
137 | IYKKYALQSAAGKDVAKQIAWIKD | 1.71
138 | IYKKYALQSAAGKDYAKQIAWIKD | 1.45
139 | IYKKYALQSAAGKDHAKQIAWIKD | 2.22
140 | IYKKYALQSAAGKDPAKQIAWIKD | 2.56
141 | IYKKYALQSAAGKDQAKQIAWIKD | 2.29
142 | IYKKYALQSAAGKDLAKQIAWIKD | 2.64
143 | IYKKYALQSAAGKDIAKQIAWIKD | 1.69
144 | IYKKYALQSAAGKDDAKQIAWIKD | 2.35

Row | Variant | protein stability index
145 | IYKKYALQSAAGKDTAKQIAWIKD | 2.35
146 | IYKKYALQSAAGKDNAKQIAWIKD | 2.5
147 | IYKKYALQSAAGKDGAKQIAWIKD | 2.9
148 | IYKKYALQSAAGKDCAKQIAWIKD | 1.89
149 | IYKKYALQSAAGKDEAKQIAWIKD | 2.7
150 | IYKKYALQSAAGKDWAKQIAWIKD | 1.43
151 | IYKKYALQSAAGKDFAKQIAWIKD | 1.75
152 | IYKKYALQSAAGKDAAIQIAWIKD | 1.79
153 | IYKKYALQSAAGKDAAVQIAWIKD | 2.12
154 | IYKKYALQSAAGKDAAPQIAWIKD | 2.51
155 | IYKKYALQSAAGKDAAYQIAWIKD | 1.66
156 | IYKKYALQSAAGKDAASQIAWIKD | 2.67
157 | IYKKYALQSAAGKDAALQIAWIKD | 2.07
158 | IYKKYALQSAAGKDAAEQIAWIKD | 3.42
159 | IYKKYALQSAAGKDAAWQIAWIKD | 1.63
160 | IYKKYALQSAAGKDAAHQIAWIKD | 2.89
161 | IYKKYALQSAAGKDAAQQIAWIKD | 2.19
162 | IYKKYALQSAAGKDAAAQIAWIKD | 2.48
163 | IYKKYALQSAAGKDAAGQIAWIKD | 2.35
164 | IYKKYALQSAAGKDAAMQIAWIKD | 1.38
165 | IYKKYALQSAAGKDAARQIAWIKD | 2.67
166 | IYKKYALQSAAGKDAADQIAWIKD | 3.27
167 | IYKKYALQSAAGKDAAFQIAWIKD | 1.32
168 | IYKKYALQSAAGKDAATQIAWIKD | 2.92

Row | Variant | protein stability index
169 | IYKKYALQSAAGKDAANQIAWIKD | 2.51
170 | IYKKYALQSAAGKDAACQIAWIKD | 2.04
171 | IYKKYALSSAAGKDAAKQIAWIKD | 2.25
172 | IYKKYALVSAAGKDAAKQIAWIKD | 2.17
173 | IYKKYALYSAAGKDAAKQIAWIKD | 1.69
174 | IYKKYALRSAAGKDAAKQIAWIKD | 2.21
175 | IYKKYALWSAAGKDAAKQIAWIKD | 1.92
176 | IYKKYALTSAAGKDAAKQIAWIKD | 1.84
177 | IYKKYALQSAAGKDAAKHIAWIKD | 2.43
178 | IYKKYALQSAAGKDAAKNIAWIKD | 2.49
179 | IYKKYALQSAAGKDAAKGIAWIKD | 2.45
180 | IYKKYALQSAAGKDAAKIIAWIKD | 2.4
181 | IYKKYALQSAAGKDAAKLIAWIKD | 1.99
182 | IYKKYALQSAAGKDAAKMIAWIKD | 2.38
183 | IYKKYALQSAAGKDAAKKIAWIKD | 2.6
184 | IYKKYALQSAAGKDAAKCIAWIKD | 1.75
185 | IYKKYALQSAAGKDAAKDIAWIKD | 2.83
186 | IYKKYALQSAAGKDAAKAIAWIKD | 2.06
187 | IYKKYALQSAAGKDAAKFIAWIKD | 2.33
188 | IYKKYALQSAAGKDAAKEIAWIKD | 2.45

From the supplement of paper PMC10567573
